Target: P. aeruginosa ClpGGI WT (P. aeruginosa)

FLRYLKASKVPLN [peptide 134]
ATPase activity of 1 μM ClpGGI with increasing Pep134 concentrations (saturation of the stimulation at 25 μM peptide) (ATP min^−1 monomer^−1): 108

Source: publication PMC8024975
